Source: US20230002798A1, “PROCESS FOR THE PREPARATION OF A FERMENTABLE SUGAR COMPOSITION AND THE FERMENTATION THEREOF” (WeissBioTech GmbH, priority 2019, published 2023)

B1: Gth: oligo-1,6-glucosidase of Parageobacillus thermoglucosidasius, amino acid sequence SEQ ID NO:2, expressed in Bacillus subtilis (protein, listed as Parageobacillus thermoglucosidasius)
chain: MERVWWKEAVVYQIYPRSFYDSNGDGIGDIRGIIAKLDYLKELGVDVVWLSPVYKSPNDDNGYDISDYRDIMDEFGTMADWKTMLEEMHKRGIKLVMDLVVNHTSDEHPWFIESRKSKDNPYRDYYIWRPGKNGKEPNNWESVFSGSAWEYDEMTGEYYLHLFSKKQPDLNWENPKVRREVYEMMKFWLDKGVDGFRMDVINMISKVPELPDGEPQSGKKYASGSRYYMNGPRVHEFLQEMNREVLSKYDIMTVGETPGVTPKEGILYTDPSRRELNMVFQFEHMDLDSGPGGKWDIRPWSLADLKKTMTKWQKELEGKGWNSLYLNNHDQPRAVSRFGDDGKYRVESAKMLATFLHMMQGTPYIYQGEEIGMTNVRFPSIEDYRDIETLNMYKERVEEYGEDPQEVMEKIYYKGRDNARTPMQWDDSENAGFTAGTPWIPVNPNYKEINVKAALEDPNSVFHYYKKLIQLRKQHDIIVYGTYDLILEDDPYIYAYTRTLGNEQLIVITNFSEKTPVFRLPDHIIYKTKELLISNYDVDEAEELKEIRLRPWEARVYKIRLP
modifications: WP_042386239.1 alpha-glucosidase
B2: Agl1: oligo-1,6-glucosidase of Bifidobacterium breve UCC2003, amino acid sequence SEQ ID NO:1, expressed in Bacillus subtilis (protein)
chain: MMTTFNRAIIPDAIRTNGATPNPWWSNAVVYQIYPRSFQDTNGDGFGDLKGITSRLDYLADLGVDVLWLSPVYKSPQDDNGYDISDYQDIDPLFGTLDDMDELLAEAHKRGLKVVMDLVVNHTSDEHAWFEASKNKDDEHADWYWWRPARPGTTPGEPGSEPNQWGSYFGGSAWEYCPERGEYYLHQFSKKQPDLNWENPAVRRAVYDMMNWWLDRGIDGFRMDVITLISKRTDANGRLPGEYGSELDDLPVGEEGYSNPNPFCADGPRQDEFLKEMRREVFAGREGFLTVGEAPGITPVRNEHITNPANGELDMLFLFDHVDFDCDGVKWKPLPLDLPGFKRIMAGYQTAVENVGWASLFTGNHDQPRVVSRWGDDSSEESRVRSAKALGLMLHMHRGTPYVYQGEELGMTNAHFTSLDQYRDLESLNAYRQRVEEAKVQSPESMLAGIAARGRDNSRTPMQWDGSAYAGFTAPDAATEPWISVNPNHAEINAAGEFDDPDSVYAFYKKLIALRHNSSIVAAGEWQLIDADDAHVYAFTRTLGNERLLVVVNLSGRTVDLPRESTELIAGGVTEPDIILSTYDAPHTVVSLANRELDPWEAAAVQL
modifications: Bifidobacterium breve UCC2003; ACM89182.1 alpha-glucosidase 1

Experiments:
[1] = SSF of maltodextrins with added panose, 24 h (Example 1); design: species or system Yeast (Deltaferm® AL-18); details: SSF 24 h; for panose concentration reduced by: 20 g/L panose added; for ethanol concentration increase by % compared to the negative control / ethanol concentration increase compared to the negative control: 300 g/L maltodextrin + 20 g/L panose, enzyme 187.5 kU per ton; for ethanol concentration increase compared to the negative control: glucoamylase 40 g/t, 30° C., pH 4.8
Procedure: (§1) Quantification of ethanol yield Ethanol was quantified via HPLC. Samples were taken at the end of the SSF or during SSF at set time points. Samples were centrifuged for 1 min at 17,000 xg and sterile filtered (0.2 μm). The samples were frozen at −80° C. prior to measurements. Ethanol was determined with an Aminex 87C column (Bio-Rad Laboratories, Inc., US) on a Shimadzu HPLC system.
(§2) Residual sugars were quantified via HPLC. Samples were taken at the end of the SSF or during SSF at set time points. Samples were centrifuged for 1 min at 17 000 xg and sterile filtered (0.2 μm). The samples were frozen at −80° C. prior to measurements. Residual sugars were determined with a Zorbax NH2 column (Agilent Technologies, Inc., US) on an Agilent 1200 HPLC system.
(§3) For simultaneous saccharification and fermentation (abbreviated SSF), the oligo-1,6-glucosidases—either Agl1 or Gth—were used as crude Bacillus extract. Glucidex® Maltodextrin 12 (Roquette, FR) was dissolved in SSF-medium (5 g/L yeast extract, 5 g/L peptone, 1 g/L K2HIPO4, 0.5 g/L Mg2SO4 in 50 mM citrate buffer, pH 4.8) at 300 g/L. Panose, isomaltose, isomaltotriose, maltose, maltotriose, or trehalose was added at 20 g/L. As a positive control, 20 g/L glucose was added instead of the respective sugar. The SSF medium containing starch hydrolysate (maltodextrins) and sugars was sterile filtered (0.2 μm). Yeast (Deltaferm® AL-18, WeissBioTech GmbH, Ascheberg, Germany) was grown in YINaC medium (50 g/L dextrose, 5 g/L yeast extract, 5 g/L peptone, 1 g/L K2HPO4, 0.5 g/L Mg2SO4*7H2O, 2 g/L NH4Cl in 50 mM sodium citrate, pH 4.8) for 2 days at 37° C. and harvested by centrifugation for 15 min at 5100 rpm and 8° C. Pelleted yeast was added to the SSF-medium at a final concentration of 6 g/L. Glucoamylase (Deltazym® GA L-E5, WeissBioTech GmbH, Ascheberg, Germany) was added at 40 g per ton of dry starch equivalent. The enzyme product Agl1 or Gth was added up to a final concentration of 187.5 kU per ton of dry starch equivalent. For the SSF with trehalose, Agl1 or Gth was added at 937.5 kU per ton of dry starch equivalent. As a negative control, an SSF as described above was run without oligo-1,6-glucosidase/enzyme product. The SSF was performed at 30° C. without stirring or shaking for 24 h.

[2] = SSF of maltodextrins with added maltotriose, 24 h (Example 1); design: species or system Yeast (Deltaferm® AL-18); details: SSF 24 h, maltodextrin + 20 g/L maltotriose, enzyme 187.5 kU per ton
Procedure: as §1, §3

[3] = Industry-relevant SSF of maltodextrins with added panose, 72 h (Example 2); design: species or system Yeast (Deltaferm® AL-18); details: SSF 72 h, maltodextrin + 20 g/L panose, glucoamylase 400 g/t, enzyme 187.5 kU per ton
Procedure: as §1
For the SSF, the enzyme product was used as crude Bacillus extract. Glucidex® Maltodextrin 12 was dissolved in SSF medium (5 g/L yeast extract, 5 g/L peptone, 1 g/L K2HIPO4, 0.5 g/L Mg2SO4 in 50 mM citrate buffer, pH 4.8) at 300 g/L. Panose was added at 20 g/L. As a positive control, 20 g/L glucose was added. The SSF medium containing starch and sugars was sterile filtered (0.2 μm). Yeast (Deltaferm® AL-18, WeissBioTech GmbH, Ascheberg, Germany) was grown in YINaC medium (50 g/L dextrose, 5 g/L yeast extract, 5 g/L peptone, 1 g/L K2HPO4, 0.5 g/L Mg2SO4*7H2O, 2 g/L NH4Cl in 50 mM sodium citrate, pH 4.8) for 2 days at 37° C. and harvested by centrifugation for 15 min at 5100 rpm and 8° C. Pelleted yeast was added to the SSF at a final concentration of 6 g/L. Glucoamylase (Deltazym® GA L-E5, WeissBioTech GmbH, Ascheberg, Germany) was added at 400 g per ton of dry starch equivalent. The enzyme product Agl1 or Gth was added to a final concentration of 187.5 kU per ton of dry starch equivalent. As a negative control, no oligo-1,6-glucosidase/enzyme product was added. The SSF was performed at 30° C. without stirring or shaking for 72 h.

[4] = SSF of commercial liquefied starch with added alpha-amylase, panose content (Example 4); design: species or system Yeast (Deltaferm® AL-18); details: for reduction in panose compared to control / panose detected: after 60 h SSF; for panose detected: liquefied starch with glucoamylase and alpha-amylase, enzyme 187.5 kU per ton; for panose after 72 h: after 72 h SSF
Procedure: as §2
For SSF, the enzyme product was used as crude Bacillus extract. Acidified liquefied starch from a commercial plant, containing no detectable amounts of panose, isomaltose, isomaltotriose or trehalose, was brought to pH 4.8. SSF medium components (5 g/L yeast extract, 5 g/L peptone, 1 g/L K2HPO4, 0.5 g/L Mg2SO4 in 50 mM citrate buffer, pH 4.8) were added to liquefied starch (300 g/L). The SSF medium containing starch was sterile filtered (0.2 μm). Yeast (Deltaferm® AL-18, WeissBioTech GmbH, Ascheberg, Germany) was grown in YINaC medium (50 g/L dextrose, 5 g/L yeast extract, 5 g/L peptone, 1 g/L K2HIPO4, 0.5 g/L Mg2SO4*7H2O, 2 g/L NH4Cl in 50 mM sodium citrate, pH 4.8) for 2 days at 37° C. and harvested by centrifugation for 15 min at 5100 rpm and 8° C. Pelleted yeast was added to the SSF at a final concentration of 6 g/L. Glucoamylase (Deltazym® GA L-E10, WeissBioTech GmbH, Ascheberg, Germany) was added at 200 g per ton of dry starch equivalent. Alpha-amylase (Fuelzyme®, BASF) was added at 200 g per ton of dry starch equivalent to simulate non-complete removal of alpha-amylase in industrial processes, which is often the cause for increased non-fermentable sugars. The enzyme product Agl1 or Gth was added to a final concentration of 187.5 kU per ton of dry starch equivalent. As control, no oligo-1,6-glucosidase/enzyme product was added. The SSF was performed at 30° C. without stirring or shaking for 72 h.

[5] = Temperature range of enzyme activity; type: biochemical; details: 30° C.-80° C. investigated
Procedure: The temperature range was investigated from 30° C.-80° C. by incubating the enzymes and measuring their activity at the respective temperature.

[6] = Process stability (SSF medium without starch, pH 4.8, 30° C., 72 h); type: physicochemical; details: after 72 h at 30° C., pH 4.8, SSF medium without starch
Procedure: Process stability was determined by incubating the enzymes under process conditions (SSF medium without starch, pH 4.8, 30° C.) for 72 h and measuring the remaining activity.

Molecule | panose concentration reduced by [1] | ethanol concentration increase by % compared to the negative control [1] | ethanol concentration increase compared to the negative control [1] | ethanol concentration increase by % compared to the negative control [2] | ethanol concentration increase compared to the negative control [2] | ethanol concentration increase by % compared to the negative control [3] | ethanol concentration increase compared to the negative control [3] | reduction in panose compared to control [4] | panose detected [4] | panose after 72 h [4] | temperature range [5] | process stability (remaining activity) [6]
B1 | 96% | 85% | 0.94 percentage points (v/v) | 0% | 0.00 percentage points (v/v) | 15% | 1.77 percentage points (v/v) | 57% | 2.3 g/L | completely hydrolysed | 30-70 °C | 80%
B2 | 96% | 92% | 1.01 percentage points (v/v) | 1% | 0.03 percentage points (v/v) | 8% | 1.16 percentage points (v/v) | 50% | 2.7 g/L | completely hydrolysed | 30-50 °C | 80%
